This note sets out measurements from patent publication CN112812179A (UNIV BEIJING, dated 2021).

Assay [1] deals with T1, 人CMTM6氨基酸序列2到24位氨基酸的多肽 (CMTM6 N2-24) (human, UniProt Q9NX76 2-24, C末端耦联BSA (the BSA conjugate is the one made for ELISA, paragraph 46; the KLH conjugate was used for immunisation)).
T1 construct: range 2-24; also called CMTM6 N2-24多肽; BSA耦联的CMTM6 N2-24多肽
T1 peptide (looked up): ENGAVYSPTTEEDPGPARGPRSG
The experiment in a line: indirect ELISA, serially diluted peptide coated on the plate. In general terms: ELISA stands for enzyme-linked immunosorbent assay.

In assay [2] the target is T2, 人CMTM6 (endogenous, in 786-O cells and colon cancer tissue) (human, UniProt Q9NX76 1-183).
T2 construct: whole, on cells
T2 sequence (looked up): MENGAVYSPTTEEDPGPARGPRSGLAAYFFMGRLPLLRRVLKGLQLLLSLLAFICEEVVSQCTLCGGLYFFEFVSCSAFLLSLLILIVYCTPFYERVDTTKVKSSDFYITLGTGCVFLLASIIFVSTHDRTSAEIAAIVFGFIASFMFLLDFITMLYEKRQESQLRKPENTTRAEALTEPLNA
Description: Western blot of 786-O lysates, compared with CMTM6 knockout clones 2E7 and 4D10. A general note: Immunoblotting shows a protein as a band on a membrane.

The target of assay [3] is T3, Flag-CMTM6 (overexpressed in HEK293T cells) (human, UniProt Q9NX76 1-183).
T3 construct: Detected in denatured cell lysate by Western blot; the band is 26 kD; also called Flag-CMTM6融合表达载体; not shown: Flag tag
T3 sequence (looked up): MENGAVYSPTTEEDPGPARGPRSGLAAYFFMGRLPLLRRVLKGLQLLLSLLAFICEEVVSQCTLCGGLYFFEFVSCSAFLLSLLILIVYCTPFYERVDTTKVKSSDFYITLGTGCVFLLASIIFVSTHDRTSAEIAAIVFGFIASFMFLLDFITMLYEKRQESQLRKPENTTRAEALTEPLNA
Description: Western blot of HEK293T lysates, 1 ug/mL primary antibody; empty-vector control gave no signal.

B1: 1-19重链(HC)和轻链(LC)超表达上清 (recombinant 1-19 from HEK293T cells co-transfected with heavy and light chain plasmids) (antibody, V domains shown)
VH: EVQLQQSGAELVKPGASVKLSCASSGFNIKDTYIHWVKRRPEQGLEWIGRIDPANGKTYFHSNFQGKATITADTSSNTAHLELSSLTSEDTAVYYCAFLYDGPIDYWGQGTSVTVSS
VL: DVLMTQTPLSLPVSLGDQASISCRSSQSIVYRDGNTYLDWYLQKPGQSPKLLIYKVSNRFSGVPDRFSGSGSGTDFTLKISRVEAEDLGVYYCFQGSLFPYTFGGGTKLEI
notes: Full-length light and heavy chains amplified from 1-19 hybridoma cDNA, cloned into pcDNA3.1 and expressed in HEK293T; see the note of m1 for the printed FR/CDR pieces; also called 共转染本发明抗体1-19重轻链质粒的HEK293T细胞上清
Turning to B1, the binding result in assay [1] is “binds”.

B2: 鼠抗人CMTM6单克隆抗体1-19 (purified from hybridoma supernatant) (antibody, V domains shown)
VH: EVQLQQSGAELVKPGASVKLSCASSGFNIKDTYIHWVKRRPEQGLEWIGRIDPANGKTYFHSNFQGKATITADTSSNTAHLELSSLTSEDTAVYYCAFLYDGPIDYWGQGTSVTVSS
VL: DVLMTQTPLSLPVSLGDQASISCRSSQSIVYRDGNTYLDWYLQKPGQSPKLLIYKVSNRFSGVPDRFSGSGSGTDFTLKISRVEAEDLGVYYCFQGSLFPYTFGGGTKLEI
notes: also called 1-19mAb; 本发明抗体1-19
On to B2, for which the binding result in assay [2] and in assay [3] was “binds” each time.
